Measured values published in US20220017612A1 (TILOS THERAPEUTICS, published 2022).

Legend:
[1] = target: T1, fusion protein of a human IgG1 Fc domain and mouse LAP-TGFβ1 (human; mouse, UniProt P04202 30-390); assay: BLI, 2:1 model, component 1
T1 construct: also called mouse LAP-TGFβ-Fc
Method: (§1) The 20E6_H0.2aL1_IgG1 antibody was biotinylated using EZ-Link SulfoNHS-LC-Biotin (ThermoFisher). A streptavidin-functionalized tip was equilibrated in binding buffer (10 mM sodium phosphate, 150 mM sodium chloride, 1% (w/v) bovine serum albumin, 0.05% (w/v) sodium azide, pH 7.4) and dipped in a 10 μg/mL solution of biotinylated anti-LAP in binding buffer for 30 seconds to load the tip with antibody. The antibody-loaded tip was then washed in binding buffer and placed in a solution containing 0-24 nM of a fusion protein having a human IgG1 Fc domain fused to either human LAP-TGFβ1, human LAP-TGFβ2 or human LAP-TGFβ3. The antigen was allowed to bind to antibody for 5 minutes (association phase), and then the tip was moved to binding buffer (dissociation phase). The association and dissociation phases were fit to a 2:1 heterogenous ligand binding model to determine the binding rate constants. As shown in FIG. 21A and Table 17, 20E6_H0.2aL1_IgG1 bound with sub-nanomolar affinity to human LAP-TGFβ1, but not to human LAP-TGFβ2 (FIG. 21B) or LAP-TGFβ3 (FIG. 21C).
(§2) The binding of 20E6_H0.2aL1_IgG1 antibody and 20E6_H0.2aL1_hIgG4mut antibody to LAP-TGFβ1 of various species was examined by bio-layer interferometry using the method described in Example 12, except that the antibody-loaded tip was placed in a solution containing 0-24 nM of a fusion protein having a human IgG1 Fc domain fused to either mouse, rat, cynomolgus monkey, or human LAP-TGFβ1.

[2] = target: T2, fusion protein of a human IgG1 Fc domain and cynomolgus monkey LAP-TGFβ1 (human; cynomolgus monkey); assay: BLI, 2:1 model, component 1
T2 construct: also called cynomolgus monkey LAP-TGFβ-Fc
Method: as §1, §2

[3] = target: T3, fusion protein of a human IgG1 Fc domain and human LAP-TGFβ1 (human, UniProt P01137 30-390); assay: BLI, 2:1 model, component 1
T3 construct: printed both as Fc-huB1 and LAP-TGFβ-Fc; also called Fc-huB1; Fc-human LAP
Method: as §1, §2

[4] = target: T4, fusion protein of a human IgG1 Fc domain and rat LAP-TGFβ1 (human; rat, UniProt P17246 30-390, limits assumed); assay: BLI, 2:1 model, component 1
T4 construct: also called rat LAP-TGFβ-Fc
Method: as §1, §2

[5] = target: T3, fusion protein of a human IgG1 Fc …; assay: BLI, 2:1 model, component 1; remark: listed apart in the source
Method: (§3) A streptavidin-functionalized tip was equilibrated in binding buffer (10 mM sodium phosphate, 150 mM sodium chloride, 1% (w/v) bovine serum albumin, 0.05% (w/v) sodium azide, pH 7.4) and dipped in a 5 μg/mL solution of biotinylated antibody (i.e., 20E6_H0.2aL1_hIgG1, murine 16F4, or MHG8, a GARP-specific murine IgG2a described in Lienart et al. Science 2018; 362:952-956) in binding buffer for 30 seconds to load the tip with antibody. The antibody-loaded tip was then washed in binding buffer and placed in a solution containing 0-24 nM of a fusion protein containing a human IgG1 Fc domain fused to either human LAP-TGFβ1, the soluble GARP-LAP-TGFβ1 complex, or the soluble ECR3E-LAP-TGFβ1 complex. The antigen was allowed to bind to antibody for 5 minutes (association phase), and then the tip was moved to binding buffer (dissociation phase). The binding and dissociation data for 16F4 and MHG8 were well-fit by a 1:1 binding model. The association and dissociation phases for 20E6_H0.2aL1_hIgG1 antibody were fit to a 2:1 heterogenous ligand binding model to determine the binding rate constants.
(§4) As shown in FIG. 24 and Table 21, the 20E6_H0.2aL1_hIgG1 antibody bound to free LAP-TGFβ1 and the soluble GARP-LAP-TGFβ1 complex with nanomolar affinity, but not to the ECR3E-LAP-TGFβ1 complex. As expected, the anti-GARP antibody (MHG8) bound to the GARP-LAP-TGFβ1 complex, but not to free LAP-TGFβ1 or the ECR3E-LAP-TGFβ1 complex. 16F4 bound tightly to all three constructs.

[6] = target: T5, soluble complex of the ECR3E fragment of human LTBP1 and human LAP-TGFβ1 (human, UniProt Q14766 1286-1466, limits assumed); assay: bio-layer interferometry, biotinylated antibody on streptavidin tip
T5 construct: domain: third cysteine-rich domain of human LTBP1, flanked by EGFR-like domains; also called ECR3E-LAP-TGFβ1; ECR3E-LAP
Method: as §3
As shown in FIG. 24 and Table 21, the 20E6_H0.2aL1_hIgG1 antibody bound to free LAP-TGFβ1 and the soluble GARP-LAP-TGFβ1 complex with nanomolar affinity, but not to the ECR3E-LAP-TGFβ1 complex. […]

[7] = target: T6, soluble complex of the extracellular domain of human GARP and human LAP-TGFβ1 (human, UniProt Q14392 20-627); assay: BLI, component 1
T6 construct: extracellular domain; also called sGARP-LAP-TGFβ1; sGARP-LAP
Method: as §3, §4

[8] = target: T1, fusion protein of a human IgG1 Fc …; assay: BLI, 2:1 model, component 2
Method: as §1, §2

[9] = target: T2, fusion protein of a human IgG1 Fc …; assay: BLI, 2:1 model, component 2
Method: as §1, §2

[10] = target: T3, fusion protein of a human IgG1 Fc …; assay: BLI, 2:1 model, component 2
Method: as §1, §2

[11] = target: T4, fusion protein of a human IgG1 Fc …; assay: BLI, 2:1 model, component 2
Method: as §1, §2

[12] = target: human LAP-TGFβ1 overexpressed on cells (human, UniProt P01137 30-390); assay: cell-based or functional assay
Chain of human LAP-TGFβ1 overexpressed on cells (P01137 30-390): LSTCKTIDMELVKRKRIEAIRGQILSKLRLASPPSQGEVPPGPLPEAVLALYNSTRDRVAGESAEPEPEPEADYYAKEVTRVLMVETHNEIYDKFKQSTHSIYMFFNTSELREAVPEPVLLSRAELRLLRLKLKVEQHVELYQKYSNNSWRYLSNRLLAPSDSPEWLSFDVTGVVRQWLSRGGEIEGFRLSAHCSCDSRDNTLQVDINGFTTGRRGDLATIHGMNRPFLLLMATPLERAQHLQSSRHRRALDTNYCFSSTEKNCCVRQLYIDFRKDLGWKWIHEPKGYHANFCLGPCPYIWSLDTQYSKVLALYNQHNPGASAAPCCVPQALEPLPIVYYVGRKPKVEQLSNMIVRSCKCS

T1 sequence (P04202 30-390 limits assumed): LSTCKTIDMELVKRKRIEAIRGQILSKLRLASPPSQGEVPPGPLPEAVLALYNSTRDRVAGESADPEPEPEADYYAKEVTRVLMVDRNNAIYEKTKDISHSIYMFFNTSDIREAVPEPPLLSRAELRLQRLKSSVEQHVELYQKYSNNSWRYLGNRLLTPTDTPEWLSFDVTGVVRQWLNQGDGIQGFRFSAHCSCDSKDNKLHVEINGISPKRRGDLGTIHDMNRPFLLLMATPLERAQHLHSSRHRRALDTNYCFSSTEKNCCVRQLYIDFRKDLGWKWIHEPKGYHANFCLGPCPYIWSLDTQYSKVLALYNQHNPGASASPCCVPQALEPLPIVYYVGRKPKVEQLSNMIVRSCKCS
T3 sequence (P01137 30-390 limits assumed): as the sequence (P01137 30-390) above
T6 sequence (chain, as listed by the source limits assumed, chain 1 of 2): as the sequence (P01137 30-390) above
T6 sequence (Q14392 20-627 limits assumed, chain 2 of 2): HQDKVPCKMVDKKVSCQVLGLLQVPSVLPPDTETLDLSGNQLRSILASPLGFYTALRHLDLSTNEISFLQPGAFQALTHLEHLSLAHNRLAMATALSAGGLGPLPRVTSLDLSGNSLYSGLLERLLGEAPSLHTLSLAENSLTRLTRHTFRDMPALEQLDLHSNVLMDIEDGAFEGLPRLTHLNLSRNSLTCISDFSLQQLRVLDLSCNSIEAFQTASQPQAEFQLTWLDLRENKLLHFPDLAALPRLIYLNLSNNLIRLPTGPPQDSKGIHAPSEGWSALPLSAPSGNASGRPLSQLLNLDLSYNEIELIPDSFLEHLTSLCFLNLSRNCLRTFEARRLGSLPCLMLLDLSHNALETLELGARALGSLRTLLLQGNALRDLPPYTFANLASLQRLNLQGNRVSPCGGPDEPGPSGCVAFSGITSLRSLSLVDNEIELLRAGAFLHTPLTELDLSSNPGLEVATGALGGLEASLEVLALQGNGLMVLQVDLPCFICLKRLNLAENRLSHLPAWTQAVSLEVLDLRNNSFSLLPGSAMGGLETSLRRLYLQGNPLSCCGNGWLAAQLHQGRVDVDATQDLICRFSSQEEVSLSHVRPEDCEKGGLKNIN
T4 sequence (P17246 30-390 limits assumed): as the sequence (P04202 30-390 limits assumed) above, with E93D, S99T, L131F, S134T, K202V counted along it
T5 sequence (chain, as listed by the source limits assumed, chain 1 of 2): as the sequence (P01137 30-390) above
T5 sequence (Q14766 1286-1466 limits assumed, chain 2 of 2): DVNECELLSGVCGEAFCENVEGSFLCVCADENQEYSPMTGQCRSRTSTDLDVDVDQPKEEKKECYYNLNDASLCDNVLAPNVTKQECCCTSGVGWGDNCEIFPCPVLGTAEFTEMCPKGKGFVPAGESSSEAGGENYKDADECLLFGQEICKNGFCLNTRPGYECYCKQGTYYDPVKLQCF

B1: 20E6_H0.2aL1_hIgG1 (antibody)
heavy: not shown
light: DIQMTQSPSSLSASVGDRVTITCRASQDITNYLNWYQQKPGKAVKLLIYYTSRLHSGVPSRFSGSGSGTDYTLTISSLQPEDFATYFCQQGDTLPWTFGQGTKLEIKRTVAAPSVFIFPPSDEQLKSGTASVVCLLNNFYPREAKVQWKVDNALQSGNSQESVTEQDSKDSTYSLSSTLTLSKADYEKHKVYACEVTHQGLSSPVTKSFNRGEC
notes: also called 20E6_H0.2aL1_IgG1; humanized 20E6
Q: For B1, which Kd [1] is on record?
A: 14.2 nM

Q: And the koff [1]?
A: 0.0343 s⁻¹

Q: And the kon [1]?
A: 2.42e+06 M⁻¹ s⁻¹

Q: What about the Kd [2] of the same binder?
A: 15.8 nM

Q: What about the koff [2] of the same binder?
A: 0.0394 s⁻¹

Q: And the kon [2]?
A: 2.49e+06 M⁻¹ s⁻¹

Q: And the Kd [3]?
A: 16.5 nM

Q: And the koff [3]?
A: 0.0355 s⁻¹

Q: And the kon [3]?
A: 2.15e+06 M⁻¹ s⁻¹

Q: And the Kd [4]?
A: 13.4 nM

Q: And the koff [4]?
A: 0.0441 s⁻¹

Q: What about the kon [4] of the same binder?
A: 3.3e+06 M⁻¹ s⁻¹

Q: And the Kd [5]?
A: 16.2 nM

Q: And the koff [5]?
A: 0.0406 s⁻¹

Q: And the kon [5]?
A: 2.51e+06 M⁻¹ s⁻¹

Q: Does B1 bind [6]?
A: no binding (tested: 24 nM)

Q: And the Kd [7]?
A: 18.7 nM

Q: What about the koff [7] of the same binder?
A: 0.0518 s⁻¹

Q: What about the kon [7] of the same binder?
A: 2.77e+06 M⁻¹ s⁻¹

Q: And the Kd [8]?
A: 0.56 nM

Q: What about the koff [8] of the same binder?
A: 0.00039 s⁻¹

Q: And the kon [8]?
A: 700000 M⁻¹ s⁻¹

Q: And the Kd [9]?
A: 0.71 nM

Q: And the koff [9]?
A: 0.000728 s⁻¹

Q: What about the kon [9] of the same binder?
A: 1.03e+06 M⁻¹ s⁻¹

Q: What about the Kd [10] of the same binder?
A: 0.97 nM

Q: What about the koff [10] of the same binder?
A: 0.000657 s⁻¹

Q: And the kon [10]?
A: 680000 M⁻¹ s⁻¹

Q: What about the Kd [11] of the same binder?
A: 0.68 nM

Q: What about the koff [11] of the same binder?
A: 0.000768 s⁻¹

Q: What about the kon [11] of the same binder?
A: 1.14e+06 M⁻¹ s⁻¹

B2: 22F9_hIgG1 (antibody, V domains shown)
VH: QVQLQQPGAELVKPGASVKLSCKASGYTFTSYWMHWVKQRPGQGLEWIGMIHPNSGSTNYNEKFKSKATLTVDKSSSTAYMQLSSLTSEDSAVYYCAYYDYDGFFDVWGTGTTVTVSS
VL: DIVLTQSPASLDVSLGQRATISCRASKSVSTSGYSYMHWYQQKSGQPPKLLIYLASNLESGVPARFSGSGSGTHFTLNIHPVEEEDAATYYCQHSRELPYTFGGGTKLEIK
Q: B2 was tested. Which “Inhibition of human TGFβ1 activation (IC50)” value [12] did it give?
A: 3.9 µg/mL
